As usually defined, the Kd is the concentration at which binding is half-saturated.

These results are taken from PMC4822050, “Hemi-methylated DNA opens a closed conformation of UHRF1 to facilitate its histone recognition” (Nature Communications, 2016).

First the molecules themselves.
B1: Spacer of UHRF1 (residues 587–674) [human] / TTD of UHRF1 (residues 134–285) [human] (parent)
chain 1: PGPWTKEGKDRIKKLGLTMQYPEGYLEALANREREKENSKREEEEQQEGGFASPRTGKGKWKRKSAGGGPSRAGSPRRTSKKTKVEPY
chain 2: LYKVNEYVDARDTNMGAWFEAQVVRVTRKAPSRDEPCSSTSRPALEEDVIYHVKYDDYPENGVVQMNSRDVRARARTIIKWQDLEVGQVVMLNYNPDNPKERGFWYDAEISRKRETRTARELYANVVLGDDSLNDCRIIFVDEVFKIERPGE

In the experiment the parent is B1. The experiment in a line: ITC. The settings on record: with TTD of UHRF1 (residues 134–285) [human]; Cell: Spacer; Sy: TTD.
In the case of chain 1 PGPWTKEGKDRIKKLGLTMQYPEGYLEALANREREKENSKREEEEQQEGGFASPRTGKGKWKAKSAGGGPSRAGSPRRTSKKTKVEPY [chain 1 R63A], the dissociation constant Kd is 21.4 µM.

chain 1 PGPWTKEGKDRIKKLGLTMQYPEGYLEALANREREKENSKREEEEQQEGGFADPRTGKGKWKRKSAGGGPSRAGSPRRTSKKTKVEPY [chain 1 S53D]: the dissociation constant Kd was 1.15 µM.

As to chain 1 PGPWTKEGKDRIKKLGLTMQYPEGYLEALANREREKENSKREEEEQQEGGFASPRTGKGKWDRKSAGGGPSRAGSPRRTSKKTKVEPY [chain 1 K62D], the dissociation constant (Kd) was 5.94 µM.

Regarding chain 1 PGPWTKEGKDRIKKLGLTMQYPEGYLEALANREREKENSKREEEEQQEGGFASPRTGKGKWKRKSAGGGPSRAGSPRRTDKKTKVEPY [chain 1 S80D], the dissociation constant Kd was determined as 1.26 µM.
